Measurements published in patent US20090137003A1.

What was measured:
[1] = biological target: RSV protein F of strain Long (RSV Long (ATCC number VR-26)) (UniProt P12568); assay: cell-based or functional assay
[2] = biological target: RSV protein F of strain B Wash/18537 (RSV B Wash/18537 (ATCC number VR-1580)) (UniProt P13843); assay: cell-based or functional assay
[3] = biological target: RSV protein F of strain B1 (RSV B1 (ATCC number VR-1400)) (UniProt O36634); assay: cell-based or functional assay
Sequence of RSV protein F of strain B1 (RSV B1 (ATCC number VR-1400)) (O36634 26-574 limits assumed): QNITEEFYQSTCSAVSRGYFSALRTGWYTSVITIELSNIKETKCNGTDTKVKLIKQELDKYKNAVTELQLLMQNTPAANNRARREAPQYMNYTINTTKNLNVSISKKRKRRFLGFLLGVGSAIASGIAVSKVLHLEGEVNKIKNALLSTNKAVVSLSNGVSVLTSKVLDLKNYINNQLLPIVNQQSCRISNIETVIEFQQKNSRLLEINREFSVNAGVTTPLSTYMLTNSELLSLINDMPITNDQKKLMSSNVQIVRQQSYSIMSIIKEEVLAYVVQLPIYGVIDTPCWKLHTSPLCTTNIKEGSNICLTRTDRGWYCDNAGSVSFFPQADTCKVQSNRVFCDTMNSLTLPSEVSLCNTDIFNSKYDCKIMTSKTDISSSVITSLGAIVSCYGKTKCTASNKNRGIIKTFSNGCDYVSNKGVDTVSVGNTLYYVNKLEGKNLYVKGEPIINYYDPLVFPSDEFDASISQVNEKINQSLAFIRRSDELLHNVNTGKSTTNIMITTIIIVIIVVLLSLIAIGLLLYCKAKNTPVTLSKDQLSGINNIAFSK

[4] = biological target: RSV protein G (recombinant G protein) (respiratory syncytial virus (RSV), strain not stated); assay: SPR (Biacore), Fab on recombinant antigen

Sequence of RSV protein F of strain B Wash/18537 (RSV B Wash/18537 (ATCC number VR-1580)) (P13843 26-574): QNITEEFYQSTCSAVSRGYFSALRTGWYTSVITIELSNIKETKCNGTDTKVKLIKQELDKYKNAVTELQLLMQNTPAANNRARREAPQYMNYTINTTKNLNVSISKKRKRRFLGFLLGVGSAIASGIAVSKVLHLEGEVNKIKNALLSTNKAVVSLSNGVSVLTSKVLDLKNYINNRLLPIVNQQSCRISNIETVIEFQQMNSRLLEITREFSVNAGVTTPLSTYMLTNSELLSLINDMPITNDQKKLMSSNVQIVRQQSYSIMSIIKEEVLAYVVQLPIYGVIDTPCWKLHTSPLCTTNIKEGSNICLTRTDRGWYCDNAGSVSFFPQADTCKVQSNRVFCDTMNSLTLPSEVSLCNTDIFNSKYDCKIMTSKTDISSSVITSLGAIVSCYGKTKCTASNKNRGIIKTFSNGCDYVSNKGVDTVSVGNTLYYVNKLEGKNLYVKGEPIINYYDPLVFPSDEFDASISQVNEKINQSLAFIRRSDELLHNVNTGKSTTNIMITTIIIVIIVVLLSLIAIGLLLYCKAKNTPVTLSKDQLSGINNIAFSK
Sequence of RSV protein F of strain Long (RSV Long (ATCC number VR-26)) (P12568 26-574): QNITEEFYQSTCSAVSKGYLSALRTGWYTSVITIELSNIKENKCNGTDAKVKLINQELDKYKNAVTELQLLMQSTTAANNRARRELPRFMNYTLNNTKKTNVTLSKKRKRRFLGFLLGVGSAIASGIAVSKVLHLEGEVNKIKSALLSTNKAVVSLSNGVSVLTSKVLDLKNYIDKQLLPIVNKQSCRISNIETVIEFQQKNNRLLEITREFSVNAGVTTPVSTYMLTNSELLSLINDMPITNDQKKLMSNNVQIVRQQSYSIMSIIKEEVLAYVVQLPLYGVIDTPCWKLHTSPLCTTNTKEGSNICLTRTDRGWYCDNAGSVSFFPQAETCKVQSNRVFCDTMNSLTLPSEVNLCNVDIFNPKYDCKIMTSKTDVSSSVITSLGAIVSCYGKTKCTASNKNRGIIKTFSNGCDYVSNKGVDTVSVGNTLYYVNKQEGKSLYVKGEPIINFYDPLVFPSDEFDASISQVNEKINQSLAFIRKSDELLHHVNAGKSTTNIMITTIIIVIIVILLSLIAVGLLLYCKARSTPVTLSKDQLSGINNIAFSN

Binder | PRNT EC50 with complement, RSV Long [1] [µg/mL] | PRNT EC50 with complement, RSV 18537 [2] [µg/mL] | PRNT EC50 with complement, RSV B1 [3] [µg/mL] | Kd [4] [nM] | koff [4] [s⁻¹] | kon [4] [M⁻¹ s⁻¹] | t1/2 [4] [min]
antibody clone 818 (antibody, human IgG1, kappa, V domains shown) VH: QVTLRESGPAVVKPTETLTLTCAFSGFSLNAGRVGVSWIRQPPGQAPEWLARIDWDDDKAFRTSLKTRLSISKDSSKNQVVLTLSNMDPADTATYYCARTQVFASGGYYLYYLDHWGQGTLVTVSS VL: DIQMTQSPSSLSASVGDRVTITCRASQTIASYVNWYQQKPGRAPSLLIYAASNLQSGVPPRFSGSGSGTDFTLTISGLQPDDFATYYCQQSYSYRALTFGGGTKVEIKR | 0.15 | 0.21 |  |  |  |  | 
antibody clone 831 (antibody, human IgG1, kappa, V domains shown) VH: QVQLVQSGAEVKKPGASVKVSCKASANIFTYAMHWVRQAPGQRLEWMGWINVGNGQTKYSQRFQGRVTITRDTSATTAYMELSTLRSEDTAVYYCARRASQYGEVYGNYFDYWGQGTLVTVSS VL: DIQMTQSPSTLSASVGDRLTITCRASQNIYNWLAWYQQKPGKAPKLLIYDASTLESGVPSRFSGSGSGTEFTLTISSLQPDDFATYYCQQYNSLSPTFGQGTKVEIKR | 0.08 | 0.72 | 1.66 |  |  |  | 
Fab fragment of antibody clone 853 (Fab) VH: EVQLVQSGAEVKKPGQSLKISCKTSGYIFTNYWIGWVRQRPGKGLEWMGVIFPADSDARYSPSFQGQVTISADKSIGTAYLQWSSLKASDTAIYYCARPKYYFDSSGQFSEMYYFDFWGQGTLVTVSS light: EIVLTQSPGTLSLSPGERATLSCRASQSVSSNYLAWYQQKPGQAPRLLIYGASSRAAGMPDRFSGSGSGTDFTLTISRLEPEDFAVYYCQQYGNSPLTFGGGTEVEIKRTVAAPSVFIFPPSDEQLKSGTASVVCLLNNFYPREAKVQWKVDNALQSGNSQESVTEQDSKDSTYSLSSTLTLSKADYEKHKVYACEVTHQGLSSPVTKSFNRGEC |  |  |  | 0.79 | 0.0014 | 1.77e+06 | 8.25
Fab fragment of antibody clone 796 (Fab) VH: QVQLVESGGGVVQPGRSLRLSCAASGFSFSHFGMHWVRQVPGKGLEWVAIISYDGNNVHYADSVKGRFTISRDNSKNTLFLQMNSLRDDDTGVYYCAKDDVATDLAAYYYFDVWGRGTLVTVSS light: DIVMTQTPLSLSVTPGQPASISCRSSQSLLRSDGKTFLYWYLQKPGQSPQPLMYEVSSRFSGVPDRFSGSGSGADFTLNISRVETEDVGIYYCMQGLKIRRTFGPGTKVEIKRTVAAPSVFIFPPSDEQLKSGTASVVCLLNNFYPREAKVQWKVDNALQSGNSQESVTEQDSKDSTYSLSSTLTLSKADYEKHKVYACEVTHQGLSSPVTKSFNRGEC |  |  |  | 0.48 | 0.000403 | 833000 | 28.7
antibody clone 894 (antibody, human IgG1, kappa, V domains shown) VH: QVQLVESGGGVVQPGKSLRLSCAASGFRFSDYGMHWVRQAPSKGLEWVAVIWHDGSNIRYADSVRGRFSISRDNSKNTLYLQMNSMRADDTAFYYCARVPFQIWSGLYFDHWGQGTLVTVSS VL: EIVMTQSPATLSVSPGERATLSCRASQSVGNNLAWYQQRPGQAPRLLIYGASTRATGIPARFSGSGSGTEFTLTISSLQSEDFAVYYCQQYDKWPETFGQGTKVDIKR | 0.08 | 0.07 |  |  |  |  | 
antibody clone 880 (antibody, human IgG1, kappa, V domains shown) VH: QITLKESGPTLVRPTQTLTLTCTFSGFSLSTSKLGVGWIRQPPGKALEWLALVDWDDDRRYRPSLKSRLTVTKDTSKNQVVLTMTNMDPVDTATYYCAHSAYYTSSGYYLQYFHHWGPGTLVTVSS VL: DIQMTQSPSSLAASVGDRVTITCRASQTIASYVNWYQQKPGKAPNLLIYAASSLQSGVPSRFSGSGSGTDFTLTISSLQPEDFASYFCQQSYSFPYTFGQGTKLDIKR | 0.38 | 0.95 | 0.4 |  |  |  | 
antibody clone 827 (antibody, human IgG1, kappa, V domains shown) VH: QVQLVQSGAEVKKPGASVKVSCRVSGHTFTALSKHWMRQGPGGGLEWMGFFDPEDGDTGYAQKFQGRVTMTEDTATGTAYMELSSLTSDDTAVYYCATVAAAGNFDNWGQGTLVTVSS VL: DIQMTQSPSSLAASVGDRVTITCRASQFISSYLHWYQQRPGKAPKLLMYAASTLQSGVPSRFSGSGSGTDFTLTISSLQPEDFATYYCQQSYTNPYTFGQGTKLEIKR | 0.16 | 0.1 |  |  |  |  | 
antibody clone 800 (antibody, human IgG1, kappa, V domains shown) VH: QVQLVESGGAVVQPGRSLRLSCEVSGFSFSDYGMNWVRQGPGKGLEWVAVIWHDGSNKNYLDSVKGRFTVSRDNSKNTLFLQMNSLRAEDTAVYYCARTPYEFWSGYYFDFWGQGTLVTVSS VL: AIQLTQSPSSLSASVGDRVTLTCRASQGITDSLAWYQQKPGKAPKVLLYAASRLESGVPSRFSGRGSGTDFTLTISSLQPEDFATYYCQQYSKSPATFGPGTKVEIRR | 0.15 |  | 0.16 |  |  |  | 
Fab fragment of antibody clone 816 (Fab) VH: EVQLLESGGGLVQPGGSLRLSCVASGFTFSTYAMTWVRQAPGKGLEWVSVIRASGDSEIYADSVRGRFTISRDNSKNTVFLQMDSLRVEDTAVYFCANIGQRRYCSGDHCYGHFDYWGQGTLVTVSS light: DIVMTQSPLSLPVTPGEPASISCRSSQSLLHSDGRYYVDWYLQKPGQSPHLLIYLASNRASGVPDRFTGSGSGTDFTLKISRVEAEDVGVYYCMQGLHTPWTFGQGTKVDIKRTVAAPSVFIFPPSDEQLKSGTASVVCLLNNFYPREAKVQWKVDNALQSGNSQESVTEQDSKDSTYSLSSTLTLSKADYEKHKVYACEVTHQGLSSPVTKSFNRGEC |  |  |  | 0.09 | 0.000178 | 2.02e+06 | 65
Fab fragment of antibody clone 859 (Fab) VH: QVQLVESGGGVVQPGRSLRLSCAVSGSSFSKYGIHWVRQAPGKGLEWVAVISYDGSKKYFTDSVKGRFTIARDNSQNTVFLQMNSLRAEDTAVYYCATGGGVNVTSWSDVEHSSSLGYWGLGTLVTVSS light: DIQMTQSPSSLSASVGDRVTITCRASQGIRNYLAWYQQKPGKVPKLLVFAASTLQSGVPSRFSGSGSGTDFTLTISSLQPEDVATYYCQRYNSAPLTFGGGTKVEIKRTVAAPSVFIFPPSDEQLKSGTASVVCLLNNFYPREAKVQWKVDNALQSGNSQESVTEQDSKDSTYSLSSTLTLSKADYEKHKVYACEVTHQGLSSPVTKSFNRGEC |  |  |  | 0.12 | 4.63e-05 | 380000 | 250
